Data reported in publication PMC4557121 (2015).

Experiments:
Test in all cases: SPR
[1] = biological target: A2 with residue 4 substituted with alanine (UniProt Q13501)
[2] = biological target: M5
[3] = biological target: A2 with residue 7 substituted with alanine (UniProt Q13501)
[4] = biological target: A2 (UniProt Q13501)
[5] = biological target: M11
[6] = biological target: M2
[7] = biological target: A2 with residue 9 substituted with alanine (UniProt Q13501)
[8] = biological target: A2 with residue 3 substituted with alanine (UniProt Q13501)
[9] = biological target: M10
[10] = biological target: M1
[11] = biological target: M6

- Kd [1]: 4.32 µM
- Kd [2]: 110 nM
- Kd [3]: 11.8 µM
- Kd [4]: 10.2 nM
- Kd [5]: 73.1 nM
- Kd [6]: 402 nM
- Kd [7]: 35.6 µM
- Kd [8]: 3.59 µM
- Kd [9]: 381 nM
- Kd [10]: 1640 nM
- Kd [11]: 0.142 nM
B1: purified TRB3 protein (natural protein)
chain: MRATPLAAPAGSLSRKKRLELDDNLDTERPVQKRARSGPQPRLPPCLLPLSPPTAPDRATAVATASRLGPYVLLEPEEGGRAYQALHCPTGTEYTCKVYPVQEALAVLEPYARLPPHKHVARPTEVLAGTQLLYAFFTRTHGDMHSLVRSRHRIPEPEAAVLFRQMATALAHCHQHGLVLRDLKLCRFVFADRERKKLVLENLEDSCVLTGPDDSLWDKHACPAYVGPEILSSRASYSGKAADVWSLGVALFTMLAGHYPFQDSEPVLLFGKIRRGAYALPAGLSAPARCLVRCLLRREPAERLTATGILLHPWLRQDPMPLAPTRSHLWEAAQVVPDGLGLDEAREEEGDREVVLYG
